Experimental data from patent US7745185B1, “Sulfotransferase 1A3 sequence variants” (Mayo Foundation for Medical Education and Research, priority 2003, dated 2010).
Like-named read-outs stand apart in the source and are kept apart here.

Legend:
SULT1A3 [1] = molecular target: T1, SULT1A3 (Homo sapiens, UniProt P0DMM9, K234N); assay: SULT1A3 enzyme activity assay (sulfate conjugation of dopamine with PAPS) in COS-1 cytosol preparations; format: biochemical; conditions: recombinant allozyme expressed in COS-1 cells, dopamine 40 μM
T1 construct: made in house; host or cells: COS-1 cells transfected with pCR3.1 construct; high speed supernatant cytosol, unpurified
Source text: COS-1 cell expression: Two different SULT1A3 expression constructs were made using the pCR3.1 expression vector. One of the constructs was designed to express the SULT1A3 Lys234Asn allozyme, while the remaining construct was designed to express a wild type SULT1A3 polypeptide. All SULT1A3 cDNA sequences containing SULT1A3 nucleotide sequence variants used to create the expression constructs were created by site directed mutagenesis using the method described by Ho et al. (1989) Gene 77:51-59. Each SULT1A3 cDNA was amplified by PCR and subcloned into the eukaryotic expression vector pCR3.1 (Promega, Madison, Wis.). […]
Enzyme Assays: β-galactosidase activity in each of the COS-1 HSS preparations was measured with the β-galactosidase Enzyme Assay System (Promega, Madison, Wis.). […] The protein concentration of each recombinant protein preparation was determined by the dye-binding method of Bradford with bovine serum albumin (BSA) as a standard.
SULT1A3 enzyme activity was measured with an assay that involves sulfate conjugation of a sulfate acceptor substrate, dopamine (40 μM), in the presence of the sulfate donor 3′-phosphoadenosine-5′-phosphosulfate (PAPS). […] Enzyme activity was expressed as nanomoles (nmoles) of sulfate conjugated product formed per hour of incubation. […]

SULT1A3 [2] = molecular target: T2, SULT1A3 (Homo sapiens, UniProt P0DMM9); assay: Substrate kinetic studies, apparent Km for dopamine and PAPS; format: biochemical; conditions: recombinant enzyme
T2 construct: made in house; host or cells: COS-1 cells transfected with pCR3.1 construct; high speed supernatant cytosol, unpurified
Description: SULT1A3 enzyme activity was measured with an assay that involves sulfate conjugation of a sulfate acceptor substrate, dopamine (40 μM), in the presence of the sulfate donor 3′-phosphoadenosine-5′-phosphosulfate (PAPS). […] Cytosol from COS-1 cells transfected with empty pCR3.1 were used to correct for endogenous SULT activity. Because SULTs display profound substrate inhibition, a range of dopamine concentrations were tested to ensure that the assays were performed at a dopamine concentration that yielded maximal activity for the Lys234Asn allozyme. Enzyme activity was expressed as nanomoles (nmoles) of sulfate conjugated product formed per hour of incubation. Apparent Km values for PAPS were determined in the presence of dopamine, with PAPS concentrations that varied from 0.035 μM to 0.5 μM and dopamine concentrations that varied from 2.5 μM to 80 μM.
Data Analysis: Apparent Km values were calculated by using the method of Wilkinson with a computer program written by Cleland. Wilkinson, Biochem. J., 80:324-332 (1961); and Cleland, Nature, 198:463-365 (1963). Statistical comparisons of data were performed by ANOVA with the StatView program, version 4.5 (Abacus Concepts, Inc., Berkeley, Calif.). Linkage analysis was performed after all DNA samples had been genotyped at each of the 6 polymorphic sites observed. D′ values, a quantitative method for reporting linkage data that is independent of allele frequency (Hartl and Clark, Principles of Population Genetics, 3rd ed. (1997) Sinauer Associates, Inc., (Sunderland, Mass.), pp. 96-106; and Hedrick, Genetics of Populations, 2nd ed. (2000) Jones and Bartlett (Sudbury, Mass.), pp. 396-405), then were calculated. The genotype data also were used to assign inferred haplotypes using a program based on the E-M algorithm (Long et al. (1995) Am. J. Hum. Genet. 56:799-810; and Excoffier and Slatkin (1995) Mol. Biol. Evol. 12:921-927). Unambiguous haplotype assignment also was possible on the basis of genotype for samples that contained no more than one heterozygous polymorphism.
Alterations in amino acid sequence can alter enzyme substrate affinity and/or catalytic efficiency. Substrate kinetic studies were conducted to determine whether the Lys234Asn allozyme differed from the WT SULT1A3 protein in these aspects. A series of dopamine and PAPS concentrations were used to estimate apparent Km values for recombinant wild type SULT1A3 and for the Lys234Asn variant allozyme.

[3] = PAPS 0.035 μM to 0.5 μM in the presence of dopamine, read-out: apparent Km for PAPS
[4] = dopamine 2.5 μM to 80 μM, read-out: apparent Km for dopamine

Molecule | enzyme activity as percentage of WT activity (SULT1A3 [1]) [%] | reduction in enzyme activity (SULT1A3 [1]; relative to WT SULT1A3) [%] | Km (SULT1A3 [2]; [3]) [µM] | Km (SULT1A3 [2]; [4]) [µM]
Lys234Asn: SULT1A3 polypeptide having an asparagine at amino acid residue 234 (allozyme encoded by thymine at nucleotide 702) (protein, listed as Homo sapiens) MELIQDTSRPPLEYVKGVPLIKYFAEALGPLQSFQARPDDLLINTYPKSGTTWVSQILDMIYQGGDLEKCNRAPIYVRVPFLEVNDPGEPSGLETLKDTPPPRLIKSHLPLALLPQTLLDQKVKVVYVARNPKDVAVSYYHFHRMEKAHPEPGTWDSFLEKFMAGEVSYGSWYQHVQEWWELSRTHPVLYLFYEDMKENPKREIQKILEFVGRSLPEETMDFMVQHTSFKEMKNNPMTNYTTVPQELMDHSISPFMRKGMAGDWKTTFTVAQNERFDADYAEKMAGCSLSFRSEL | 27 | 73 | 0.107 | 9.8
WT: reference SULT1A3 polypeptide (SEQ ID NO:4) that contains a lysine at amino acid residue 234 (protein, listed as Homo sapiens) MELIQDTSRPPLEYVKGVPLIKYFAEALGPLQSFQARPDDLLINTYPKSGTTWVSQILDMIYQGGDLEKCNRAPIYVRVPFLEVNDPGEPSGLETLKDTPPPRLIKSHLPLALLPQTLLDQKVKVVYVARNPKDVAVSYYHFHRMEKAHPEPGTWDSFLEKFMAGEVSYGSWYQHVQEWWELSRTHPVLYLFYEDMKENPKREIQKILEFVGRSLPEETMDFMVQHTSFKEMKKNPMTNYTTVPQELMDHSISPFMRKGMAGDWKTTFTVAQNERFDADYAEKMAGCSLSFRSEL | – | – | 0.112 | 10.4
